The record followed here is paper PMC5608758, “A brain-targeting lipidated peptide for neutralizing RNA-mediated toxicity in Polyglutamine Diseases” (Scientific Reports, 2017).

Entries after “also recorded” stand apart in the source; their conditions may differ. Non-standard residues stand in square brackets, D forms with d. Residues, ends and D or L forms follow the SMILES beside them. hArg = N=C(N)NCCCC[C@H](N)C(=O)O; Orn = NCCC[C@H](N)C(=O)O

The target of one series is expanded MJD CAG78 RNA. As to the kind of experiment: Isothermal titration calorimetry binding assay, expanded CAG RNA. As to conditions: ITC, 25 °C, 20 mM MOPS pH 7.0, 300 mM NaCl; 0.7 mM peptide titrated into 0.5 µM MJD CAG78 RNA; one binding site model; mean ± S.E.M., at least 3 independent experiments. The method, then:
Experiments were carried out using a MicroCal iTC200 isothermal titration calorimeter (GE Healthcare) at 25 °C. Data were analyzed using the Origin® scientific plotting software version 7 (Microcal Software Inc.). All RNAs and peptides were dissolved in binding buffer (20 mM MOPS, pH 7.0; 300 mM NaCl) and 0.7 mM of peptide was titrated into 0.5 µM of RNA for each experiment. The concentration of RNA was estimated with appropriate extinction coefficients at 260 nm on a Nanodrop 2000 (Thermo Scientific). A reference power of 8 μcal/s was used with an initial 0.5 µl of injection of peptide followed by 2 µl for all subsequent titrations points with a 60 sec initial equilibrium delay and 150 sec pause between injections. The samples were stirred at a speed of 1000 rpm throughout the experiment. The thermal titration data were fitted to the ‘one binding site model’ to determine the dissociation constant (KD). Each experiment was repeated at least 3 times with consistent results obtained.

The next series has as its system P3V8. As to the kind of experiment: ITC. Conditions: ITC (MicroCal iTC200): 20 mM MOPS pH 7.0, 300 mM NaCl, 25 C; 0.7 mM peptide titrated into 0.5 uM RNA; one-site model; errors are SEM, n>=3.
The subject of another series is P3 (P3WT). As to the kind of experiment: ITC. Conditions: ITC (MicroCal iTC200): 20 mM MOPS pH 7.0, 300 mM NaCl, 25 C; 0.7 mM peptide titrated into 0.5 uM RNA; one-site model; errors are SEM, n>=3.
The subject of a further series is P3MT1. As to the kind of experiment: ITC. As to conditions: ITC (MicroCal iTC200): 20 mM MOPS pH 7.0, 300 mM NaCl, 25 C; 0.7 mM peptide titrated into 0.5 uM RNA; one-site model; errors are SEM, n>=3.
Another series relates to P3MT2. The series can be described thus: ITC. Conditions: ITC (MicroCal iTC200): 20 mM MOPS pH 7.0, 300 mM NaCl, 25 C; 0.7 mM peptide titrated into 0.5 uM RNA; one-site model; errors are SEM, n>=3.
Another series concerns P3MT3. The series can be described thus: ITC. Conditions: ITC (MicroCal iTC200): 20 mM MOPS pH 7.0, 300 mM NaCl, 25 C; 0.7 mM peptide titrated into 0.5 uM RNA; one-site model; errors are SEM, n>=3.
A further series relates to P3MT4. As to the kind of experiment: ITC. Conditions: ITC (MicroCal iTC200): 20 mM MOPS pH 7.0, 300 mM NaCl, 25 C; 0.7 mM peptide titrated into 0.5 uM RNA; one-site model; errors are SEM, n>=3.
The subject of a further series is P3MT5. As to the kind of experiment: ITC. Conditions: ITC (MicroCal iTC200): 20 mM MOPS pH 7.0, 300 mM NaCl, 25 C; 0.7 mM peptide titrated into 0.5 uM RNA; one-site model; errors are SEM, n>=3.
In another series the test system is P3V1. As to the kind of experiment: ITC. As to conditions: ITC (MicroCal iTC200): 20 mM MOPS pH 7.0, 300 mM NaCl, 25 C; 0.7 mM peptide titrated into 0.5 uM RNA; one-site model; errors are SEM, n>=3.
Another series deals with P3V2. The series can be described thus: ITC. Conditions: ITC (MicroCal iTC200): 20 mM MOPS pH 7.0, 300 mM NaCl, 25 C; 0.7 mM peptide titrated into 0.5 uM RNA; one-site model; errors are SEM, n>=3.
The subject of a further series is P3V3. As to the kind of experiment: ITC. As to conditions: ITC (MicroCal iTC200): 20 mM MOPS pH 7.0, 300 mM NaCl, 25 C; 0.7 mM peptide titrated into 0.5 uM RNA; one-site model; errors are SEM, n>=3.
The test system of a further series is P3V4. The series can be described thus: ITC. As to conditions: ITC (MicroCal iTC200): 20 mM MOPS pH 7.0, 300 mM NaCl, 25 C; 0.7 mM peptide titrated into 0.5 uM RNA; one-site model; errors are SEM, n>=3.
The test system of a further series is P3V5. The series can be described thus: ITC. As to conditions: ITC (MicroCal iTC200): 20 mM MOPS pH 7.0, 300 mM NaCl, 25 C; 0.7 mM peptide titrated into 0.5 uM RNA; one-site model; errors are SEM, n>=3.
Another series has as its system P3V6. The series can be described thus: ITC. As to conditions: ITC (MicroCal iTC200): 20 mM MOPS pH 7.0, 300 mM NaCl, 25 C; 0.7 mM peptide titrated into 0.5 uM RNA; one-site model; errors are SEM, n>=3.
The subject of the next series is P3V7. As to the kind of experiment: ITC. Conditions: ITC (MicroCal iTC200): 20 mM MOPS pH 7.0, 300 mM NaCl, 25 C; 0.7 mM peptide titrated into 0.5 uM RNA; one-site model; errors are SEM, n>=3.
The subject of the next series is P3V9. The series can be described thus: ITC. As to conditions: ITC (MicroCal iTC200): 20 mM MOPS pH 7.0, 300 mM NaCl, 25 C; 0.7 mM peptide titrated into 0.5 uM RNA; one-site model; errors are SEM, n>=3.

Take “Ac-DGKSKGIAYIEFKGDGKSKGIAYIEFK-NH2 [P3V21]”: on expanded MJD CAG78 RNA, the KD result was “No binding; also recorded: did not show any binding”.
On the same count and under the same terms, with `CC[C@H](C)[C@H](NC(=O)CNC(=O)[C@H](CCCCN)NC(=O)[C@H](CO)NC(=O)[C@H](CCCCNC(=N)N)NC(=O)CNC(=O)[C@H](CC(=O)O)NC(C)=O)C(=O)N[C@@H](C)C(=O)N[C@@H](Cc1ccc(O)cc1)C(=O)N[C@H](C(=O)N[C@@H](CCC(=O)O)C(=O)N[C@@H](Cc1ccccc1)C(=O)N[C@@H](CCCCN)C(N)=O)[C@@H](C)CC` [P3V14] (Ac-DG[hArg]SKGIAYIEFK-NH2) the entry was “No binding”.
Still for that read-out and setting: then `CC[C@H](C)[C@H](NC(=O)CNC(=O)[C@H](CCCCNC(=N)N)NC(=O)[C@H](CO)NC(=O)[C@H](CCCCN)NC(=O)CNC(=O)[C@H](CC(=O)O)NC(C)=O)C(=O)N[C@@H](C)C(=O)N[C@@H](Cc1ccc(O)cc1)C(=O)N[C@H](C(=O)N[C@@H](CCC(=O)O)C(=O)N[C@@H](Cc1ccccc1)C(=O)N[C@@H](CCCCN)C(N)=O)[C@@H](C)CC` [P3V15] (Ac-DGKS[hArg]GIAYIEFK-NH2), with “No binding”.
MJD CAG27 RNA (unexpanded) gave a Kd in the series on P3V8 of 2.19 µM.
Still for that read-out and setting: with MJD CAA/G78 RNA (expanded, interrupted) the figure was 2.94 µM.
On to `CC[C@H](C)[C@H](NC(=O)CNC(=O)[C@H](CCCN)NC(=O)[C@H](CO)NC(=O)[C@H](CCCCN)NC(=O)CNC(=O)[C@H](CC(=O)O)NC(C)=O)C(=O)N[C@@H](C)C(=O)N[C@@H](Cc1ccc(O)cc1)C(=O)N[C@H](C(=O)N[C@@H](CCC(=O)O)C(=O)N[C@@H](Cc1ccccc1)C(=O)N[C@@H](CCCCN)C(N)=O)[C@@H](C)CC` [P3V17] (Ac-DGKS[Orn]GIAYIEFK-NH2), for which the KD entry at expanded MJD CAG78 RNA is given as “No binding”.
Same read-out and setting: with `CC[C@H](C)[C@H](NC(=O)CNC(=O)[C@H](CCCCN)NC(=O)[C@H](CO)NC(=O)[C@H](CCCN)NC(=O)CNC(=O)[C@H](CC(=O)O)NC(C)=O)C(=O)N[C@@H](C)C(=O)N[C@@H](Cc1ccc(O)cc1)C(=O)N[C@H](C(=O)N[C@@H](CCC(=O)O)C(=O)N[C@@H](Cc1ccccc1)C(=O)N[C@@H](CCCCN)C(N)=O)[C@@H](C)CC` [P3V16] (Ac-DG[Orn]SKGIAYIEFK-NH2) the entry was “No binding”.
Turning to MJD CAG78 RNA (expanded), the Kd worked out at 8.37 µM in the series on P3 (P3WT); 31.3 µM in the series with P3MT1; 101 µM in the series with P3MT2; 16.6 µM in the series with P3MT3; 17.4 µM with P3MT4; 51.3 µM in the series on P3MT5. In addition, the dissociation constant (Kd) in the series with P3V1 came out at 2 µM; with P3V2 it was 2.21 µM; with P3V3 it was 1.74 µM; with P3V4, 4.44 µM; in the series with P3V5, 0.86 µM; in the series with P3V6 it was 23.8 µM. In addition, the equilibrium dissociation constant (Kd) in the series with P3V7 is 3.67 µM; in the series with P3V8 it was 0.33 µM; in the series with P3V9 it was 2.34 µM.
Compound Ac-DGRSRGIAYIEFK-NH2 [P3V9] yielded a Kd at expanded MJD CAG78 RNA of 2.34 ± 0.49 µM.
For the compound “Ac-DGKSKGIAYIEFKDGKSKGIAYIEFK-NH2 [P3V20]”, the KD result on expanded MJD CAG78 RNA is given as “No binding; also recorded: did not show any binding”.
